Columns and labels:
Experiment in all cases: cell-based or functional assay
[1] = biological target: HIV-1 Env of isolate VLGCB3 (subtype B) (HIV-1)
[2] = biological target: HIV-1 Env of isolate 93TH305 (subtype B) (HIV-1)
[3] = biological target: HIV-1 Env of isolate 98IN022 (subtype C) (HIV-1)
[4] = biological target: HIV-1 Env of isolate TRJ04551.58 (subtype B) (HIV-1)
[5] = biological target: HIV-1 Env of isolate APV_17 (subtype B) (HIV-1)
[6] = biological target: HIV-1 Env of isolate MGRM-Chronic-B-017 (subtype B) (HIV-1)
[7] = biological target: HIV-1 Env of isolate MGRM-Chronic-B-010 (subtype B) (HIV-1)
[8] = biological target: HIV-1 Env of isolate SF162 (subtype B) (HIV-1) (UniProt P19550)
[9] = biological target: HIV-1 Env of isolate JRFL (subtype B) (HIV-1)
[10] = biological target: HIV-1 Env of isolate MGRM-Chronic-B-001 (subtype B) (HIV-1)
[11] = biological target: HIV-1 Env of isolate 6535.3 (subtype B) (HIV-1)
[12] = biological target: HIV-1 Env of isolate THR0.18 (subtype B) (HIV-1)
[13] = biological target: HIV-1 Env of isolate 93MW959 (subtype C) (HIV-1)
[14] = biological target: HIV-1 Env of isolate MGRM-Chronic-B-012 (subtype B) (HIV-1)
[15] = biological target: HIV-1 Env of isolate QH0692.42 (subtype B) (HIV-1)
[16] = biological target: HIV-1 Env of isolate SC422661.8 (subtype B) (HIV-1)
[17] = biological target: HIV-1 Env of isolate MGRM-Chronic-B-008 (subtype B) (HIV-1)
[18] = biological target: HIV-1 Env of isolate MGRM-Chronic-B-018 (subtype B) (HIV-1)
[19] = biological target: HIV-1 Env of isolate JRCSF (subtype B) (HIV-1) (UniProt P20871)
[20] = biological target: HIV-1 Env of isolate MGRM-Chronic-B-002 (subtype B) (HIV-1)
[21] = biological target: HIV-1 Env of isolate MG RM-C-019 (subtype C) (HIV-1)
[22] = biological target: HIV-1 Env of isolate MG RM-C-028 (subtype C) (HIV-1)
[23] = biological target: HIV-1 Env of isolate MGRM-Chronic-B-011 (subtype B) (HIV-1)
[24] = biological target: HIV-1 Env of isolate MGRM-Chronic-B-003 (subtype B) (HIV-1)
[25] = biological target: HIV-1 Env of isolate MGRM-Chronic-B-004 (subtype B) (HIV-1)
[26] = biological target: HIV-1 Env of isolate 93IN905 (subtype C) (HIV-1)
[27] = biological target: HIV-1 Env of isolate TRO.11 (subtype B) (HIV-1)
[28] = biological target: HIV-1 Env of isolate MGRM-Chronic-B-023 (subtype B) (HIV-1)
[29] = biological target: HIV-1 Env of isolate APV_6 (subtype B) (HIV-1)
[30] = biological target: HIV-1 Env of isolate MG RM-C-026 (subtype C) (HIV-1)
[31] = biological target: HIV-1 Env of isolate NL43 (subtype B) (HIV-1)
[32] = biological target: HIV-1 Env of isolate MG RM-C-020 (subtype C) (HIV-1)
[33] = biological target: HIV-1 Env of isolate MGRM-Chronic-B-020 (subtype B) (HIV-1)
[34] = biological target: HIV-1 Env of isolate CAAN.A2 (subtype B) (HIV-1)
[35] = biological target: HIV-1 Env of isolate MG RM-C-022 (subtype C) (HIV-1)
[36] = biological target: HIV-1 Env of isolate MG RM-C-027 (subtype C) (HIV-1)
[37] = biological target: HIV-1 Env of isolate MG RM-C-024 (subtype C) (HIV-1)
[38] = biological target: HIV-1 Env of isolate MG RM-C-025 (subtype C) (HIV-1)
[39] = biological target: HIV-1 Env of isolate MGRM-Chronic-B-024 (subtype B) (HIV-1)
[40] = biological target: HIV-1 92RW008 Env (HIV-1)
[41] = biological target: HIV-1 Env of isolate APV_13 (subtype B) (HIV-1)
[42] = biological target: HIV-1 Env of isolate 92 BR 020 (subtype B) (HIV-1)
[43] = biological target: HIV-1 Env of isolate 97ZA012 (subtype C) (HIV-1)
[44] = biological target: HIV-1 Env of isolate PVO.4 (subtype B) (HIV-1)
[45] = biological target: HIV-1 Env of isolate MG RM-C-023 (subtype C) (HIV-1)

Sequence of 4980_N08 (PGT-143) (antibody) (VH): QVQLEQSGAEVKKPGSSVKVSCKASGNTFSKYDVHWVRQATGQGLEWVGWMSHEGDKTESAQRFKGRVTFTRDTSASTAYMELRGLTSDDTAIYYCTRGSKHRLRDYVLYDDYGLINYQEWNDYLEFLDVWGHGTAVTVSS
Sequence of 4980_N08 (PGT-143) (antibody) (VL): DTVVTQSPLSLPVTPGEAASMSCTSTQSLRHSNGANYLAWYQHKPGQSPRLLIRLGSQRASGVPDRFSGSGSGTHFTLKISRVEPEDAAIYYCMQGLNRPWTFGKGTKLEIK
Sequence of 4970_K22 (PGT-144) (antibody) (VH): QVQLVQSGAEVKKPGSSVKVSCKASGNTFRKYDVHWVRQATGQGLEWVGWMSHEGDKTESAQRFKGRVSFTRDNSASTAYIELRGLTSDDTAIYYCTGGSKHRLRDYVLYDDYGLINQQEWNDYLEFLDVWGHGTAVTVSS
Sequence of 4970_K22 (PGT-144) (antibody) (VL): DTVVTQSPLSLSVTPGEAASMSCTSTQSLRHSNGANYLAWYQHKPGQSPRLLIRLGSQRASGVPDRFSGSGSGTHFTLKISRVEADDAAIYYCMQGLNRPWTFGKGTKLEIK

## 4970_K22 (PGT-144) (antibody)
[1]
  IC50: > 50 µg/mL
[2]
  IC50: > 50 µg/mL
[3]
  IC50: 0.171 µg/mL
[4]
  IC50: > 50 µg/mL
[5]
  IC50: 10.3 µg/mL
[6]
  IC50: 0.712 µg/mL
[7]
  IC50: > 50 µg/mL
[8]
  IC50: > 50 µg/mL
[9]
  IC50: > 50 µg/mL
[10]
  IC50: > 50 µg/mL
[11]
  IC50: > 50 µg/mL
[12]
  IC50: 0.029 µg/mL
[13]
  IC50: 0.332 µg/mL
[14]
  IC50: > 50 µg/mL
[15]
  IC50: > 50 µg/mL
[16]
  IC50: > 50 µg/mL
[17]
  IC50: > 50 µg/mL
[18]
  IC50: 2.4 µg/mL
[19]
  IC50: 0.149 µg/mL
[20]
  IC50: > 50 µg/mL
[21]
  IC50: 0.513 µg/mL
[22]
  IC50: > 50 µg/mL
[23]
  IC50: 5.64 µg/mL
[24]
  IC50: 7.41 µg/mL
[25]
  IC50: 9.41 µg/mL
[26]
  IC50: 0.132 µg/mL
[27]
  IC50: 4.73 µg/mL
[28]
  IC50: > 50 µg/mL
[29]
  IC50: > 50 µg/mL
[30]
  IC50: > 50 µg/mL
[31]
  IC50: > 50 µg/mL
[32]
  IC50: 1.29 µg/mL
[33]
  IC50: > 50 µg/mL
[34]
  IC50: > 50 µg/mL
[35]
  IC50: 2.58 µg/mL
[36]
  IC50: > 50 µg/mL
[37]
  IC50: 2.06 µg/mL
[38]
  IC50: 17.6 µg/mL
[39]
  IC50: 0.04 µg/mL
[40]
  IC50: > 50 µg/mL
[41]
  IC50: > 50 µg/mL
[42]
  IC50: 44 µg/mL
[43]
  IC50: > 50 µg/mL
[44]
  IC50: 0.535 µg/mL
[45]
  IC50: 0.38 µg/mL

## 4980_N08 (PGT-143) (antibody)
[1]
  IC50: > 50 µg/mL
[2]
  IC50: 17.3 µg/mL
[3]
  IC50: 0.001 µg/mL
[4]
  IC50: > 50 µg/mL
[5]
  IC50: 1.11 µg/mL
[6]
  IC50: 0.145 µg/mL
[7]
  IC50: > 50 µg/mL
[8]
  IC50: > 50 µg/mL
[9]
  IC50: > 50 µg/mL
[10]
  IC50: > 50 µg/mL
[11]
  IC50: > 50 µg/mL
[12]
  IC50: 0.016 µg/mL
[13]
  IC50: 0.002 µg/mL
[14]
  IC50: > 50 µg/mL
[15]
  IC50: > 50 µg/mL
[16]
  IC50: 2.02 µg/mL
[17]
  IC50: > 50 µg/mL
[18]
  IC50: 0.377 µg/mL
[19]
  IC50: 0.007 µg/mL
[20]
  IC50: > 50 µg/mL
[21]
  IC50: 0.004 µg/mL
[22]
  IC50: 12.4 µg/mL
[23]
  IC50: 1.56 µg/mL
[24]
  IC50: 0.854 µg/mL
[25]
  IC50: 0.395 µg/mL
[26]
  IC50: 0.002 µg/mL
[27]
  IC50: 0.219 µg/mL
[28]
  IC50: 0.236 µg/mL
[29]
  IC50: 14 µg/mL
[30]
  IC50: > 50 µg/mL
[31]
  IC50: > 50 µg/mL
[32]
  IC50: 0.797 µg/mL
[33]
  IC50: > 50 µg/mL
[34]
  IC50: > 50 µg/mL
[35]
  IC50: 0.103 µg/mL
[36]
  IC50: 0.598 µg/mL
[37]
  IC50: 0.05 µg/mL
[38]
  IC50: 0.336 µg/mL
[39]
  IC50: 0.01 µg/mL
[40]
  IC50: 0.385 µg/mL
[41]
  IC50: > 50 µg/mL
[42]
  IC50: 25.9 µg/mL
[43]
  IC50: > 50 µg/mL
[44]
  IC50: 0.162 µg/mL
[45]
  IC50: 0.148 µg/mL

Reference: US20160264649A1
